The values that follow come from patent US20110262445A1 (CEPHALON AUSTRALIA, published 2011).

Changes are numbered by the printed parent chain. Names may count otherwise.

T1: human IL-12 (human, UniProt P29460 23-328; P29459 23-219)
T1 construct: Recombinant (Peprotech); FLAG-tagged IL-12 in the flow cytometry assays, biotinylated in the IL-12Rβ2 assay; also called hIL-12
T1 sequence 1: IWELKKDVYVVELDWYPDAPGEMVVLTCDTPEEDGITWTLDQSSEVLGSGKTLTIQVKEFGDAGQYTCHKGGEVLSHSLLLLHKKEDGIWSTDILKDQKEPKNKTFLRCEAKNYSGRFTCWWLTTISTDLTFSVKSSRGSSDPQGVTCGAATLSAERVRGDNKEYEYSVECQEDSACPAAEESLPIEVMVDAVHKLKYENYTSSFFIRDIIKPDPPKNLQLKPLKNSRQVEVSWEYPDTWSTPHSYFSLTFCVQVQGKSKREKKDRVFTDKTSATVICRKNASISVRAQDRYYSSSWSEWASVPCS
T1 sequence 2: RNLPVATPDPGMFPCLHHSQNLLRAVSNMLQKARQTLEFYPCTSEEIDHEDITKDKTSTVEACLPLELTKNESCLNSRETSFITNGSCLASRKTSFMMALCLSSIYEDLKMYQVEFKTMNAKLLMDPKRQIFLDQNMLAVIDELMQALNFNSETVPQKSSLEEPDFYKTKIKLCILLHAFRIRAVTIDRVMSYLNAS

T2: human IL-23 (human, UniProt P29460 23-328; Q9NPF7 20-189)
T2 construct: Recombinant (Ebioscience); HIS-tagged in flow cytometry, biotinylated in some assays; also called hIL-23; rhIL-23
T2 sequence 1: T1 sequence 1
T2 sequence 2: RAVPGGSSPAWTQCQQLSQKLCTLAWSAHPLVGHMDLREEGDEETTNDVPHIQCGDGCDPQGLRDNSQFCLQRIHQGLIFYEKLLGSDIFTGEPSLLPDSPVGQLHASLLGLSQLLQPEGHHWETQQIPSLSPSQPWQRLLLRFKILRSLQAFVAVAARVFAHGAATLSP

B1: Antibody 104 (antibody, human IgG1, kappa)
heavy chain: not shown
light chain: DIQMTQSPSSVSASVGDRVTITCRASQSISINLHWYQQKPGKAPKLLIYFASQSISGVPSRFSGSGSGTDFSLTINSLQPEDFARYYCQQSNSFPLTFGGGTKVEIKRTVAAPSVFIFPPSDEQLKSGTASVVCLLNNFYPREAKVQWKVDNALQSGNSQESVTEQDSKDSTYSLSSTLTLSKADYEKHKVYACEVTHQGLSSPVTKSFNRGEC
B2: Antibody 117 (antibody, human IgG1, kappa, V domains shown)
VH: EVQLVQSGAEVKKPGATVKISCKASGYTFSDYYLHWVRQAPEKGLEWMGWIDPENGDTEYAPKFQGRVTITADTSTNTGYLELSSLRSEDTAVYYCAANKELRYFDVWGQGTLVTVSS
VL: DIQMTQSPSSVSASVGDRVTITCRASQSISINLHWYQQKPGKAPKLLIYFASQSISGVPSRFSGSGSGTDFSLTINSLQPEDFARYYCQQSNSFPLTFGGGTKVEIKR
B3: Antibody 116 (antibody, human IgG1, kappa, V domains shown)
VH: B2 VH with T76S, N77D
VL: B2 VL
B4: Antibody 110 (antibody, human IgG1, kappa, V domains shown)
VH: B2 VH with R38K, N77D
VL: B2 VL
B5: Antibody 108 (antibody, human IgG1, kappa, V domains shown)
VH: B2 VH with F29I, N77D
VL: B2 VL
B6: Antibody 109 (antibody, human IgG1, kappa, V domains shown)
VH: B2 VH with S30K, N77D
VL: B2 VL
B7: Antibody 115 (antibody, human IgG1, kappa, V domains shown)
VH: B2 VH with A72T, N77D
VL: B2 VL
B8: Antibody 123 (antibody, human IgG1, kappa, V domains shown)
VH: B2 VH with N77D, E89D
VL: B2 VL
B9: Antibody 112 (antibody, human IgG1, kappa, V domains shown)
VH: B2 VH with M48I, N77D
VL: B2 VL
B10: Antibody 105 (antibody, human IgG1, kappa, V domains shown)
VH: B2 VH with K23T, N77D
VL: B2 VL
B11: Antibody 107 (antibody, human IgG1, kappa, V domains shown)
VH: B2 VH with T28N, N77D
VL: B2 VL
B12: Antibody 118 (antibody, human IgG1, kappa, V domains shown)
VH: B2 VH with N77D, G79A
VL: B2 VL
B13: Antibody 121 (antibody, human IgG1, kappa, V domains shown)
VH: B2 VH with N77D, S84R
VL: B2 VL
B14: Antibody 113 (antibody, human IgG1, kappa, V domains shown)
VH: B2 VH with V68A, N77D
VL: B2 VL
B15: Antibody 106 (antibody, human IgG1, kappa, V domains shown)
VH: B2 VH with Y27F, N77D
VL: B2 VL
B16: Antibody 120 (antibody, human IgG1, kappa, V domains shown)
VH: B2 VH with N77D, E82Q
VL: B2 VL
B17: Antibody 124 (antibody, human IgG1, kappa)
heavy chain: not shown
light chain: B1 light chain
B18: Antibody 119 (antibody, human IgG1, kappa, V domains shown)
VH: B2 VH with N77D, L81M
VL: B2 VL
B19: Antibody 114 (antibody, human IgG1, kappa, V domains shown)
VH: B2 VH with I70M, N77D
VL: B2 VL
B20: Antibody 122 (antibody, human IgG1, kappa, V domains shown)
VH: B2 VH with N77D, R87T
VL: B2 VL
B21: scFv combo. # 13 (scFv)
scFv: QVQLVQSGAEVKKPGASVKVSCKASGYAFTDYYLHWVRQAPGRGLEWMGWIDPENGDTEYAPKFQGRVTMTTDTSTSTAYMELRSLRSDDTAVYYCNANKELRYFDVWGQGTMVTVSSGGGGSGGGGSGGGGSEIVMTQSPATLSVSPGERATLSCRASQSISINLHWYQQKPGQAPRLLIYFASQSTSGIPARFSGSGSGTEFTLTISSLQSEDFAVYYCQQSNSFPLTFGGGTKVEIKR
notes: scFv-80 with VH T28A, Q43R; VL I55T; not shown: proprietary C-terminal FLAG tag
B22: scFv combo. # 14 (scFv)
scFv: B21 scFv with A28T, F29L
notes: scFv-80 with VH F29L, Q43R; VL I55T; not shown: proprietary C-terminal FLAG tag

In the first test the target is T1, human IL-12. In words: ELISA, coated IL-12. In short, it runs like this: (§1)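 Each value is an absorbance measuring binding. Plates (Maxisorp) carried cytokine coated at 1 μg/mL in carbonate buffer pH 9.6 overnight at 4° C, were blocked with 1% BSA in PBS for 1 hour at 25° C, and received antibody titrations for 1 hour at 25° C. Detection used goat anti-human IgG or anti-murine immunoglobulin HRP at 1:2000 for 1 hour, then TMB stopped with 1M HCl, with absorbance taken at 450 nm (reference 620 nm).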
With B1, the binding result is recorded as “binds”.

With B2, the binding result is “binds”.

B3: the binding result is on record as “binds”.

In the case of B4, the binding result is listed as “binds”.

Take B5: the binding result is on record as “binds”.

With B6, the binding result is listed as “binds”.

As to B7, the binding result was “binds”.

In the case of B8, the binding result is given as “binds”.

Take B9: the binding result was “binds”.

For B10, the binding result is “binds”.

B11: the binding result is on record as “binds”.

In the case of B12, the binding result is “binds”.

As to B13, the binding result is listed as “binds”.

For the molecule B14, the binding result is reported as “binds”.

As to B15, the binding result is “binds”.

Regarding B16, the binding result is reported as “binds”.

As for B17, the binding result is recorded as “binds”.

As for B18, the binding result is listed as “binds”.

As for B19, the binding result was “binds”.

B20: the binding result is reported as “binds”.

Another test concerns the target T2, human IL-23. In words: ELISA, coated IL-23. In short, it runs like this:
as §1
Take B1: the binding result was “binds”.

For the molecule B2, the binding result is “binds”.

B3: the binding result is “binds”.

B4: the binding result was “binds”.

As for B5, the binding result is “binds”.

For the molecule B6, the binding result is given as “binds”.

Take B7: the binding result is given as “binds”.

In the case of B8, the binding result was “binds”.

For the molecule B9, the binding result is “binds”.

With B10, the binding result is “binds”.

On to B11, for which the binding result is reported as “binds”.

B12: the binding result is “binds”.

With B13, the binding result is on record as “binds”.

For B14, the binding result is on record as “binds”.

Take B15: the binding result was “binds”.

On to B16, for which the binding result was “binds”.

Consider B17, for which the binding result is given as “binds”.

As for B18, the binding result is “binds”.

Take B19: the binding result is reported as “binds”.

For the molecule B20, the binding result is “binds”.

Another test deals with T2, human IL-23. As to the kind of experiment: SPR, single 81 nM analyte, scFv via FLAG.
As for B21, binding was put at a Kd of 0.051 nM, the koff was found to be 1.3e-05 s⁻¹ and the kon came out at 250000 M⁻¹ s⁻¹.

For B22, the Kd stood at 0.079 nM, the koff is 2.1e-05 s⁻¹ and the kon amounted to 270000 M⁻¹ s⁻¹.
